Reference: article PMC11665613 (2024)

What was measured:
Assay in all cases: MST
[1] = molecular target: NCP3, nucleosome core particle with 3xFLAG-H3Kc36me3 (X. laevis | , Kc36me3 (trimethyllysine mimic on cysteine at position 36))
[2] = molecular target: NCP2, nucleosome core particle with 3xFLAG-H3K36NleCTMS (X. laevis | , cysteine at position 36 alkylated with vinyl cyclic sulfonium 5 (NleCTMS))
[3] = molecular target: NCP1, nucleosome core particle with 3xFLAG-H3K36NleCS+me2 (X. laevis | , cysteine at position 36 alkylated with vinyl dimethylsulfonium 4 (NleCS+me2))

B1: PWWP domain of NSD2 (domain or fragment)
chain: VGDLVWSKVSGYPWWPCMVSADPLLHSYTKLKGQKKSARQYHVQFFGDAPERAWIFEKSLVAFEG
Work on B1 yielded a Kd [1] of 1400 nM, a Kd [2] of 1600 nM and a Kd [3] of 1100 nM.

B2: PWWP domain of LEDGF (domain or fragment)
chain: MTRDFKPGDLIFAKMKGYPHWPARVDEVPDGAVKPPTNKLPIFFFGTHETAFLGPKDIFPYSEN
With B2 the Kd [1] was 1400 nM, the Kd [2] was 1200 nM and the Kd [3] was 520 nM.
